In patent US20240270846A1 (published 2024):
Numbering of substitutions follows the chain as printed.

B1: Du115/DUL008 (antibody, V domains shown)
VH: QVQLVESGGGLVQPGRSLRLSCAASGFTFSNAWMHWVRQAPGKGLEWVAQIKDKANSYNTYYAPSVKGRFTISRDDSKNSIYLQMNSLKTEDTAVYYCRYVHYGSSYGFLFAGYGVDAWGQGTTVTVSS
VL: DIVMTQSPLSLPVTPGEPASISCQSSEELLHANRKTYLHWYQQKPGQAPRLLIYKVQNRFSGVPDRFSGSGSGTDFTLKISRVEAEDVGVYYCAQGTATPFTFGQGTKLEIK
notes: Human IgG1 format; also called dBBDu_115 with L008
B2: dBBDu139 (antibody, human IgG1, V domains shown)
VH: QVQLVESGGGLVQPGRSLRLSCAASGFTFSNAWMHWVRQAPGKGLEWVAQIKDRGNAYNAYYAESVKGRFTISRDDSKNSIYLQMNSLKTEDTAVYYCRFVHYRHPLLHIQYGVDAWGQGTTVTVSS
VL: DIVMTQSPLSLPVTPGEPASISCRSSQSLVHSNRNTYLHWYQQKPGQAPRLLIYKVSNRFSGVPDRFSGSGSGTDFTLKISRVEAEDVGVYYCGQGTQVPYTFGQGTKLEIK
notes: IgG: VH joined to human IgG1 CH1-Fc, GLS3000 as light chain
B3: dBBDu217 (antibody, human IgG1, V domains shown)
VH: QVQLVESGGGLVQPGRSLRLSCAASGFTFSNAWMHWVRQAPGKGLEWVAQIKDRQQGYATYYAPSVKGRFTISRDDSKNSIYLQMNSLKTEDTAVYYCRFVHYHLAGYGYYGVDAWGQGTTVTVSS
VL: B2 VL
notes: as for B2
B4: dBBDu197 (antibody, human IgG1, V domains shown)
VH: QVQLVESGGGLVQPGRSLRLSCAASGFTFSNAWMHWVRQAPGKGLEWVAQIKDRSNAYAAYYAPSVKGRFTISRDDSKNSIYLQMNSLKTEDTAVYYCHYVHYASASTVLPAFGVDAWGQGTTVTVSS
VL: B2 VL
notes: as for B2
B5: dBBDu174 (antibody, human IgG1, V domains shown)
VH: QVQLVESGGGLVQPGRSLRLSCAASGFTFSSAWMHWVRQAPGKGLEWVAQIKDRASAYNAYYAESVKGRFTISRDDSKNSIYLQMNSLKTEDTAVYYCRYVHYPSYVSFLPYYGVDAWGQGTTVTVSS
VL: B2 VL
notes: as for B2
B6: dBBDu125 (antibody, human IgG1, V domains shown)
VH: QVQLVESGGGLVQPGRSLRLSCAASGFTFSIAWMHWVRQAPGKGLEWVAQIKDKVNGYTAYYAESVKGRFTISRDDSKNSIYLQMNSLKTEDTAVYYCRYVHYAAYYDVLGYGGVDAWGQGTTVTVSS
VL: B2 VL
notes: IgG: VH joined to human IgG1 CH1-Fc, GLS3000 as light chain; also called DXDU01_3_#019; DXDU01_3 #019
B7: dBBDu183 (antibody, human IgG1, V domains shown)
VH: B4 VH with R54K, S55G
VL: B2 VL
notes: as for B2
B8: dBBDu173 (antibody, human IgG1, V domains shown)
VH: B4 VH with R54K, S55G, A57L, S107G, T108G, V109G, P111S, F113Y
VL: B2 VL
notes: as for B2
B9: dBBDu199 (antibody, human IgG1, V domains shown)
VH: B4 VH with R54K, S55Q, N56S, A57G, A59N, A60T
VL: B2 VL
notes: as for B2
B10: dBBDu222 (antibody, human IgG1, V domains shown)
VH: QVQLVESGGGLVQPGRSLRLSCAASGFTISSAWMHWVRQAPGKGLEWVAQIKDRANGYAAYYAPSVKGRFTISRDDSKNSIYLQMNSLKTEDTAVYYCRYVHYATAYDGFYGFGVDAWGQGTTVTVSS
VL: B2 VL
notes: as for B2
B11: dBBDu189 (antibody, human IgG1, V domains shown)
VH: B4 VH with V48I, A57Q, A60T, S105Q, T108S, V109L, A112S
VL: B2 VL
notes: as for B2
B12: dBBDu126 (antibody, human IgG1, V domains shown)
VH: B6 VH with K54R, G57A, T59E, E64P, A105S, V109L
VL: B2 VL
notes: IgG: VH joined to human IgG1 CH1-Fc, GLS3000 as light chain; also called DADU01_3_#001; DADU01_3 #001
B13: dBBDu167 (antibody, human IgG1, V domains shown)
VH: B4 VH with R54K, S55G, A57L, S107G, T108G, V109G, A112G
VL: B2 VL
notes: as for B2
B14: dBBDu124 (antibody, human IgG1, V domains shown)
VH: B4 VH with R54K, S55Q, A57L, A59N, P64E
VL: B2 VL
notes: IgG: VH joined to human IgG1 CH1-Fc, GLS3000 as light chain; also called DADU01_3_#002; DADU01_3 #002
B15: dBBDu121 (antibody, human IgG1, V domains shown)
VH: B4 VH with R54K, S55G, S107A, T108G, V109G, A112G
VL: B2 VL
notes: IgG: VH joined to human IgG1 CH1-Fc, GLS3000 as light chain; also called DXDU01_3_#094; DXDU01_3 #094
B16: dBBDu186 (antibody, human IgG1, V domains shown)
VH: B4 VH with A57Q, A60T, S105Q
VL: B2 VL
notes: as for B2
B17: dBBDu127 (antibody, human IgG1, V domains shown)
VH: B4 VH with S55G, N56Q, A57Q, A59N, T108S, A112G, F113Y
VL: B2 VL
notes: IgG: VH joined to human IgG1 CH1-Fc, GLS3000 as light chain; also called DXDU01_3_#051; DXDU01_3 #051
B18: dBBDu122 (antibody, human IgG1, V domains shown)
VH: B4 VH with N56Q, A57L, P111G, F113Y
VL: B2 VL
notes: IgG: VH joined to human IgG1 CH1-Fc, GLS3000 as light chain; also called DXDU01_3_#072; DXDU01_3 #072
B19: dBBDu123 (antibody, human IgG1, V domains shown)
VH: B4 VH with S55A, A57S, A59N, A104S, S105A, V109L, A112S
VL: B2 VL
notes: IgG: VH joined to human IgG1 CH1-Fc, GLS3000 as light chain; also called DADU01_3_#018; DADU01_3 #018
B20: dBBDu196 (antibody, human IgG1, V domains shown)
VH: B4 VH with S55G, A59N, P64E
VL: B2 VL
notes: as for B2
B21: dBBDu202 (antibody, human IgG1, V domains shown)
VH: B4 VH with R54K, S55G, A104S, S105A
VL: B2 VL
notes: as for B2
B22: dBBDu204 (antibody, human IgG1, V domains shown)
VH: B4 VH with A57N, A60T, P64E
VL: B2 VL
notes: as for B2
B23: dBBDu193 (antibody, human IgG1, V domains shown)
VH: B4 VH with A57Q, A60T, A104S, S105A, V109L, A112S
VL: B2 VL
notes: as for B2
B24: dBBDu179 (antibody, human IgG1, V domains shown)
VH: B4 VH with A57Q, A60T
VL: B2 VL
notes: as for B2
B25: dBBDu205 (antibody, human IgG1, V domains shown)
VH: B4 VH with N56Q, A57L
VL: B2 VL
notes: as for B2
B26: anti-human CD137 antibody described in WO2005/035584A1 (abbreviated as B) (antibody, V domains shown)
VH: QVQLQQWGAGLLKPSETLSLTCAVYGGSFSGYYWSWIRQSPEKGLEWIGEINHGGYVTYNPSLESRVTISVDTSKNQFSLKLSSVTAADTAVYYCARDYGPGNYDWYFDLWGRGTLVTVSS
VL: EIVLTQSPATLSLSPGERATLSCRASQSVSSYLAWYQQKPGQAPRLLIYDASNRATGIPARFSGSGSGTDFTLTISSLEPEDFAVYYCQQRSNWPPALTFGGGTKVEIK
notes: also called control anti-CD137 antibody

These binders were tested against T1, biotin-labeled human CD137 fused to human IgG1 Fc fragment (human, biotin-labeled) (assay: bead ELISA, IgG on biotin-human CD137-Fc on streptavidin beads, no free CD3e).
T1 construct: Immobilised on streptavidin beads through biotin; also called human CD137-Fc; biotin-human CD137-Fc
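Throughout, for ELISA signal, free CD3e 125 pmol/well: bead ELISA on streptavidin-coated magnetic beads, with the signal read as well fluorescence 2 min after APS-5 addition.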

ELISA signal, free CD3e 0 pmol/well | Binder
86200 | B1
9440 | B2
19100 | B3
54400 | B4
4800 | B5
61400 | B6
34000 | B7
6540 | B8
40900 | B9
7190 | B10
27400 | B11
116000 | B12
25700 | B13
6620 | B14
3610 | B15
34800 | B16
3230 | B17
2700 | B18
2750 | B19
33100 | B20
12100 | B21
43700 | B22
18200 | B23
61000 | B24
45200 | B25
99400 | B26

These binders were tested against T1, biotin-labeled human CD137 fused to … (assay: competitive bead ELISA, IgG on biotin-human CD137-Fc, competitor free CD3 epsilon peptide 125 pmol/well).

ELISA signal, free CD3e 125 pmol/well | Binder
2620 | B1
1920 | B2
2420 | B3
2110 | B4
1880 | B5
2060 | B6
2370 | B7
2040 | B8
2370 | B9
3240 | B10
2190 | B11
2610 | B12
1940 | B13
2120 | B14
1830 | B15
2500 | B16
2200 | B17
1880 | B18
1840 | B19
2220 | B20
1930 | B21
1880 | B22
2280 | B23
2620 | B24
2190 | B25
98100 | B26

What follows are binders tested against T1, biotin-labeled human CD137 fused to … (assay: competitive bead ELISA, decrease of signal on biotin-human CD137-Fc with 125 pmol/well free CD3 epsilon peptide against 0).

Signal decrease [%] | Binder
97 | B1
79.6 | B2
87.3 | B3
96.1 | B4
60.8 | B5
96.7 | B6
93 | B7
68.8 | B8
94.2 | B9
55 | B10
92 | B11
97.8 | B12
92.5 | B13
68 | B14
49.4 | B15
92.8 | B16
32 | B17
30.2 | B18
33 | B19
93.3 | B20
84 | B21
95.7 | B22
87.5 | B23
95.7 | B24
95.2 | B25
1.26 | B26
